Experimental data published in paper PMC3973330, “A highly divergent archaeo-eukaryotic primase from the Thermococcus nautilus plasmid, pTN2”.

T1: PolpTN2delta311-923 (Thermococcus nautilus (plasmid pTN2), UniProt D6MY06 1-310)
T1 sequence: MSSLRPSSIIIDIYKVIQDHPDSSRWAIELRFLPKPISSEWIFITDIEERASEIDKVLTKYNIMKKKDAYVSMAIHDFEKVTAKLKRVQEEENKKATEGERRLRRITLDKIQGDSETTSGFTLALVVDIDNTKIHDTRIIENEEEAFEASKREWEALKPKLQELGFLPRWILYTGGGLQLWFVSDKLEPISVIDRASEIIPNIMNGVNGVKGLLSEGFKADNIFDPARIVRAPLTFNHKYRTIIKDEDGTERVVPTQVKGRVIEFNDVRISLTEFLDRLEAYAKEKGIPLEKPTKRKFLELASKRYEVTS

B1: 30 RT (ssRNA)
RNA: AGAGGGUUCAAAAAAUGGUUUCACCCCAAA
B2: 30 DNA (ssDNA)
DNA: AGAGGGTTCAAAAAATGGTTTCACCCCAAA

Biological target: T1, PolpTN2delta311-923
Test: EMSA; 10 mM Mg2+; EMSA: 50 mM Tris-HCl pH 8, 20 mM KCl, 10 mM MgCl2, 7.5 nM probe, 30 min at 65 C; 10% native PAGE in TBE
Conditions: protein: recombinant; tags: His-tag (pET30, NdeI/XhoI); label: 32P; single strand

Row | Binder | binding result
1 | B1 | binds
2 | B2 | binds
